Measured values published in patent publication US20110212476A1.

Assays:
Experiment in all cases: cell-based or functional assay
Gαi1 R178C/A326S (human) = biological target: Gαi1 R178C/A326S (human)
Gαi1 A326S (human) = biological target: Gαi1 A326S (human)
Gαi1 R178C (human) = biological target: Gαi1 R178C (human)
[1] = biological target: Gαi1 wild type (full length human, His-tagged) (human)
Gαi1 R178M/A326S (human) = biological target: Gαi1 R178M/A326S (human)
Gαi1 R178M (human) = biological target: Gαi1 R178M (human)
Chain of Gαi1 R178M (human) (B2RSH2 2-354 R178M): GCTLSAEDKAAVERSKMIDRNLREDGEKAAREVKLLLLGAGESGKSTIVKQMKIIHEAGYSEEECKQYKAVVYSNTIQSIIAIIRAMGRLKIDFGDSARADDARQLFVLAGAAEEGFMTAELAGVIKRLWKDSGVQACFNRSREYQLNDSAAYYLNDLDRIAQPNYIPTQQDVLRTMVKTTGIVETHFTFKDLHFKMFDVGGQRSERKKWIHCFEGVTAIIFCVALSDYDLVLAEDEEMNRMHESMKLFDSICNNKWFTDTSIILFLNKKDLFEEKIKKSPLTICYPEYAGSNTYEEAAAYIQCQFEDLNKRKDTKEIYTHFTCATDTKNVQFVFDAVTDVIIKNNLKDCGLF

Chain of human His-tagged RGS4 (23-298) (P49798 other isoform, or with tags, fused parts or gaps limits assumed): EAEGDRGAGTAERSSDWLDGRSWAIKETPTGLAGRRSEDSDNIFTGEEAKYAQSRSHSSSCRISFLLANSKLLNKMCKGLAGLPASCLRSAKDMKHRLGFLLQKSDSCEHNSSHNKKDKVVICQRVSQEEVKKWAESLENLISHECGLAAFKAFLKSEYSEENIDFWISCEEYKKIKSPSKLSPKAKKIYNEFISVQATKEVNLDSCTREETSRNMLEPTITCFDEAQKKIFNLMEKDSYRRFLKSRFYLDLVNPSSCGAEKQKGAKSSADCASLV
Chain of Gαi1 R178M/A326S (human) (B2RSH2 2-354 R178M/A326S): as the sequence (B2RSH2 2-354 R178M) above, with A325S counted along it
Chain of Gαi1 wild type (full length human, His-tagged) (human) (B2RSH2 2-354): as the sequence (B2RSH2 2-354 R178M) above, with M177R counted along it
Chain of Gαi1 R178C (human) (B2RSH2 2-354 R178C): as the sequence (B2RSH2 2-354 R178M) above, with M177C counted along it
Chain of Gαi1 A326S (human) (B2RSH2 2-354 A326S): as the sequence (B2RSH2 2-354 R178M) above, with M177R, A325S counted along it
Chain of Gαi1 R178C/A326S (human) (B2RSH2 2-354 R178C/A326S): as the sequence (B2RSH2 2-354 R178M) above, with M177C, A325S counted along it

- GAP Factor (Gαi1 R178C/A326S (human)): 3.63 fold
- GTPase rate +RGS4 (steady state, GDP immunodetection) (Gαi1 R178C/A326S (human)): 0.069 min⁻¹
- GAP Factor (Gαi1 A326S (human)): 1.1 fold
- GTPase rate +RGS4 (steady state, GDP immunodetection) (Gαi1 A326S (human)): 0.11 min⁻¹
- GAP Factor (Gαi1 R178C (human)): 0.92 fold
- GTPase rate +RGS4 (steady state, GDP immunodetection) (Gαi1 R178C (human)): 0.00035 min⁻¹
- GAP Factor [1]: 0.81 fold
- GTPase rate +RGS4 (steady state, GDP immunodetection) [1]: 0.013 min⁻¹
- GAP Factor (Gαi1 R178M/A326S (human)): 6.47 fold
- GTPase rate +RGS4 (steady state, GDP immunodetection) (Gαi1 R178M/A326S (human)): 0.097 min⁻¹
- maximum polarization shift resulting from RGS stimulation (Gαi1 R178M/A326S (human)): 73 mP
- stimulation of GTPase activity (Gαi1 R178M/A326S (human)): 6.6 fold
- GAP Factor (Gαi1 R178M (human)): 1.19 fold
- GTPase rate +RGS4 (steady state, GDP immunodetection) (Gαi1 R178M (human)): 0.007 min⁻¹
Substance: human His-tagged RGS4 (23-298) (from UniProt P49798 23-298)
